Biological target: vinculin (UniProt P18206)
Assay: FLAG IP, LC-MS/MS spectral counting
Conditions: reference: FLAG-EZH2 wild type; sites T367

EZH2 (from UniProt Q15910) FLAG-EZH2 T367A
binding against the reference: weaker

— PMC6051995
